The values that follow come from the nanobody polyreactivity screen of Harvey et al. (2022).

The nature of this data set: yeast display, Sf9 membrane polyspecificity reagent, FACS + sequencing; frameworks hold sequencing errors. The gist of the method:
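Synthetic nanobody libraries on Saccharomyces cerevisiae BJ5465 were galactose-induced for 36–48 hours, stained 1 hour at 4 °C with 10% biotinylated, detergent-solubilized Sf9 membrane reagent and enriched on streptavidin microbeads. FACS then separated cells into low and high (top ~1%) gates by anti-HA (expression) and streptavidin (reagent binding) fluorescence. Genes were colony-PCR amplified, MiSeq 2 × 250 sequenced and CDR-length filtered. A clone's polyreactivity label is that of its gate of origin.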
Regarding “QVQLVESGGGLVQAGGSLRLSCAASGFIVRSYAMGWYRQAPGKERELVAVISRRGVNTHYADSVKGRFTISRDNAKNTVYFQMNSLKPEDTAVYYCAKGLTALGDYWGQGTQVTVSS”, the “polyreactivity (PSR sort gate)” value was “high polyreactivity”.

Regarding “QVQLVESGGGLVQAGGSLRLSCAASGSTFGRYAMGWYRQATGKEMELVAAITRSGGRTYYADSVKGRFTISRDNAKNNVYLQMNSLKPEDTAVYYCAAVGNLYYTSHWQYDYWGQGTQVTVSS”, the “polyreactivity (PSR sort gate)” value was “high polyreactivity”.

Consider “QVQLVESGGGLVQAGGILRLICAASGRTFRYNAMGWYIQAPGKERELVASINSRGDSTYYADSVKGRFTISRDNAKNTVYLQMNSLKPEDTAVYYCNKRIGVGAYYVRYGYWGQGTQVTVSS”, for which the “polyreactivity (PSR sort gate)” value is recorded as “high polyreactivity”.

For the sequence “QVQLVESGGGLVQAGGSLRLSCAASGSILYVYAMGWYRQAPGKERELVAVITSGGSTNYADSVKGRFTISRDNAKNTVYLQMNSLKPEDTAVYYCAADPYSVYGGDYWGQGTQVTLSS”, the “polyreactivity (PSR sort gate)” value was “low polyreactivity”.

For “QDQLVESGGGLVQAGGSLRLSCAASGFTFGYYAMGWYRQAPGKERELVAAISTRGTSTYYADSVKGRFTISRDNAKNTVYLQMNSLKPEDTAVYYCARDKATDHGYNEFDYWGQGTQVTVSS”, the “polyreactivity (PSR sort gate)” value was “low polyreactivity”.

For the sequence “QVQLVESGGGLVQAGGSLRLSCAASGSIFTHYAMGWYRQAPGTERELVAGITSSGGSTYADSVKGRFTISRDNAKNTVYLQMNSLKPEDTAVYYCAAEQLRSRLIEYDYWRQGTQVTVSS”, the “polyreactivity (PSR sort gate)” value is “low polyreactivity”.

With “QVQLVESGGGLVQAGGSLRLSCAASGSISVVYDMGWYRQAPGTERELVAAIDWSGGSTYYADSVKGRFTISRDNAKNTVYLQMNSLKPEDTAVYYCAADDKVRYYWGQGTQVTVSS”, the “polyreactivity (PSR sort gate)” value was “low polyreactivity”.

On to “QVQLVESGGGLVQAGGSLRLSCAASGRIYVYYVLGWYRQAPGKERELVAAITYSGGSTYYADSVKGRFTISRDNAKNTVYLQMNSLKPEDTAVYYCNKVDAFGIVRLYYWGQGTQVTVSS”, for which the “polyreactivity (PSR sort gate)” value is reported as “low polyreactivity”.

In the case of “QVQLVESGGGLVQAGGSLRLSCAASGSIFSRYAMGWSRQAPGKERELVAAISKSGGTTYYADSVKGRFTISRDNAKNTVYLQMNSLKPEDTAVYYCNAKRYRNGSIGMGYWGQGSQVTVSS”, the “polyreactivity (PSR sort gate)” value is recorded as “high polyreactivity”.

In the case of “QVQLVESGGGLDQAGGSLRLSCAASGSTFRYYAMGWYRQAPGKERELVAAINWSGGTTSYADSVKGRFTISRDNAKNTVYLQMNSLKPEDTAVYYCAVPYLYKYSRYDYWGQGTQVTVSS”, the “polyreactivity (PSR sort gate)” value is reported as “high polyreactivity”.

As to “QVQLVESGGGLVQAGGSLRLSSAASGFIFRRYAMGWYRQAPGKERELVAAISGSGGRTYYADSVKGRFTISRDNAKNSVYLQMNSLKPEDTAVYYCAADQGSLLYDYWGQGTKVTVSS”, the “polyreactivity (PSR sort gate)” value is “high polyreactivity”.

For “QVQLVESGGGLVQAGGSLRLSCAASGSIFTQYAMGWYRQAPGKERELVAAITSSGGSTHYADSVKGRFTISRDNAKNTVYLQMNSLKPEDTAVYYCAVPSFVYATFPYGYWGQGTQVTVSS”, the “polyreactivity (PSR sort gate)” value was “low polyreactivity”.

As to “QVQLVESGGGLVQAGGSLRLSCAASGSIFVPYAMGWYRQAPGKEREFVAAMYSGGGNTYYADSVKGRFTISRDNAKNTVYLQMNSLKREDTAVYYCAAAYVYSSWSRYDYWGQGTQVTVSS”, the “polyreactivity (PSR sort gate)” value was “high polyreactivity”.

As to “QVQLVESGGGLVQAGGSLRLSCAASGRIFRHNTMGWYRQAPGKERELDAGITASGGDTYYADSVKGRFTISRDNAKNTVYLQMNSLKPEDTAVYYCAKRGQSYTYRRYDYWGQGTQVTVSS”, the “polyreactivity (PSR sort gate)” value is recorded as “low polyreactivity”.

For “QVQLVESGGRLVQAGGSLRLSCAASGSIFGYNAMGWYRQAPGKESELVAAIDKSGGNTYYADSVKGRFTISRDNANYTVYLQMNSLKPEDTAVDYCAVRAYRHRSGYSYGYWGQGTQVTVSS”, the “polyreactivity (PSR sort gate)” value was “high polyreactivity”.

For “QVQLVESGGGLVQAGGSLRLSCAASGLIFGVNAMGWYRQAPGKERELVAAISRDSDTNYADSVKGRFTISRDNAKNTDYLQMNSLKPEDTAVYYCNAYSEWPVPSPPRSQSLDYWGQGTQVTVSS”, the “polyreactivity (PSR sort gate)” value is reported as “low polyreactivity”.

“QVQLVESGGGLVQAGGSLRLSCAASGSIFTPYAMGWYRQAPGKERELGATISWSGGRTYYADSVKGRFTISRDNAKNTVYLQMNSLKPEDSAVYYCAARGYSSEYDYWGQGTQVTVSS”: the “polyreactivity (PSR sort gate)” value is reported as “high polyreactivity”.

“QGQLVESGGGLVQAGGSLRLSCAASGFTFYKNTMGWYRQAPGKERELVAAISSSGSSTYYADSVKGRFTISRDNAKNTVYLQMISLKPEDTAVYYCAACSFAYHDDYWGQGTQVTVSS”: the “polyreactivity (PSR sort gate)” value was “high polyreactivity”.

“QVQLVESAGGLVQAGGSLRLSCAASGSTFFTYTMGWYRQAPGKERELVAAISSGGSTYYADSVKGRFTISRDNAKNTVYLQMNSLKPEDTAVYYLLRGQGTQVTVSS”: the “polyreactivity (PSR sort gate)” value is on record as “low polyreactivity”.

On to “QDQLVESVGGLVQAGGSLRLSCAASAITFGNYAMGWYRQAPGKERELVAGISWSGSSTYYADSVKGRFTISRDNSKNTVYLQMNSLKPEDTAVYYCNAVQPARFVGGFGTGVDYWGQGTQVTVSS”, for which the “polyreactivity (PSR sort gate)” value is on record as “high polyreactivity”.

For the sequence “QVQLVESGGGLVQAGGSLRLSCAASGFISTPYAMGWYRQAPGKERELVAAIDISGGRTYYADSVKGRFTISRDNAKNTVYLQMNSLKPEDTAVYYCAAQLVSSYYAWYRTYYYWGQGTQVTVSS”, the “polyreactivity (PSR sort gate)” value is “high polyreactivity”.

Regarding “QVQLVESGGGLVQAGGSLRLSCAASGLTFYQNAMGWYRQAPGKERELVAAISSIGGTYYADSVKGRFTISRDNAKNTVYLQMNSLKPEDTAVYYCAKRSRYPYYPYGYWGQGTQVTVSS”, the “polyreactivity (PSR sort gate)” value is listed as “high polyreactivity”.

Take “QVQLVESGGGLVQAGGSLRLSCADSGFTFVAYAMGWYRQAPGKERELVAVISRGGSTYYADSVKGRFTISRDNAKNTVYLQMNSLKPEDTAVYYCAATYIHSYGKFYYWGQGTQLTVSS”: the “polyreactivity (PSR sort gate)” value is recorded as “low polyreactivity”.

Regarding “QVQLVESGGGLVQAGGSLRLSCAASGYIFTYNAMGWYRQAPGKERELVAAISSGGSTNYADSVKGRFTISRDNAKNTVYLQMNSLKPEDTAVYYCAAPVWTYDDYFSYSYSYGYWGQGTQVTVSS”, the “polyreactivity (PSR sort gate)” value was “low polyreactivity”.

As for “QVQLVASGGGLVQAGGSLRLSCAASGSTLDVYAMGWYRQAPGKERELVASISGSGGRTYYADSVKGRFTISRDNAKNTVYLQLNSQNPEDTAVYYCAADVRSYVASRSYRYDYWGQGNQVTVSS”, the “polyreactivity (PSR sort gate)” value is listed as “low polyreactivity”.

For “QVQLVESGGGLVQAGGSLRLSCAASGRIFPWYAMGWYRQAPGKERELVAAIKWDSGSTYYADSVKGRFTISRDNAKNTVYLQMNSLKPEDTAVYYCAAEYVAWYYGLYFSYDYWGQGTQVTVSS”, the “polyreactivity (PSR sort gate)” value is recorded as “high polyreactivity”.

For “QDQLVESGGGLVQAGGSLRLSCAASGSSFDINAMGGYRQAPGKERELVAAISWIGGSTYYADSVKGRFTISRDNAKNTVYLKMNSLKPEDTAVYYCAKKELRQYDMEYWGQGTQVTVSS”, the “polyreactivity (PSR sort gate)” value is listed as “low polyreactivity”.

For “QVQLVESGGGLVQAGGSLRLSCAASGSTFDNNGMGWYRQAPGKERELVASITFNVGSTYYADSVKGRFTISRDNAKNTVYLQMNSLKPEDTAVYYCAADDLNLSQALGYDYWGQGTQVTVSS”, the “polyreactivity (PSR sort gate)” value is recorded as “low polyreactivity”.

As to “QVQLVESVGGLVQAGGSLRLSCAASGGMGWYRQAPGKERELVATISSVGSTNYADSVKGRFTISRDNAKNTVYLQMNSLKPEDTAVYYCNATGVQYFLYGYWGQGTQVTVSS”, the “polyreactivity (PSR sort gate)” value is on record as “low polyreactivity”.

For the sequence “QVQLVESGGGLVQAGGSLRLSCAASGITSSYAMGWYRQAPGKERALVAAISRGGSTYYADSVKGRFTISRDNAKNTVSLQMNSLKPEDTAVYYCNKRRYPYGWGQGTQVTVSS”, the “polyreactivity (PSR sort gate)” value is given as “high polyreactivity”.

Regarding “QVQLVESGGGLVQAGGSLRLSCAASGSTFHWYVMGWYRQAPGKERELVAAITWSGGSTYYADSVKGRLTISRDNAKNTVYLQMNSLKPEDTAVYYCNAVFWIWNAGYDYWGQGTQVTVSS”, the “polyreactivity (PSR sort gate)” value is recorded as “low polyreactivity”.

On to “QVQLVESGGGLVQEGGSIRLSCDASGFIFDVYAIGWYRTAAGKERELVDAISSVGSTYYADSVKGRFTISRDNATNTVYLQMNSLKPEDTAVYYCADVRFYTYNYWGQGTQVTVSS”, for which the “polyreactivity (PSR sort gate)” value is “low polyreactivity”.

Consider “QVQLVESGGGLVQAGGSLRLSCAASGFIFKSNAMGWYRQAPGKERELVAAITKRGGSTYYADSVKGRFTISRDNAKNTVYLQMNSLKPEDTAVYYCAVRKPYSRYGGFDYWGQGTQVTVSS”, for which the “polyreactivity (PSR sort gate)” value is recorded as “high polyreactivity”.

For the sequence “QVQLVESGGGLVQAGGRLRLSCAASGRTFRWYAMGRYRQAPGKERELVADISSVGSTDYADSVKGRFTISRDNAKNTVYLQMNSLKPEDTAVYFCAADFSPRRYHNLSFGYWGQGTQVTVSS”, the “polyreactivity (PSR sort gate)” value is “low polyreactivity”.

Turning to “QVQLVESGGGLVQAGGSQRLSCAASGRIFRYYAMGWYRQAPGKERELVAAITWSGGSTYYADSVKGRFTISRDNEKNTVYLQMNSLKPDDTAVYYCTAISYQPFHGDYWGQGTQVTVSS”, the “polyreactivity (PSR sort gate)” value was “low polyreactivity”.

In the case of “QVQLVESGGGLVQAGGSLRLSCAASGSTLFSYAMGWYRQAPRKEREFVAAISRRGGSTYYADSVKGRFTISRDNAKNTVYLQMNSLKPEVTAVYYCNTVRVHGFPIDRIYVYWGQGTQVTVSS”, the “polyreactivity (PSR sort gate)” value was “high polyreactivity”.

For “QVQLVESGGGLVQAGGSLRLSCAASGRTFPYYAMGWSRQAPGKERQLVAAISSSGGLTYYADSVKGRFTISRDNAKNTVYLQMNSLKPEDTAVYYFNVDAWYPYQGFLVGYYYWGQGTQVTVSS”, the “polyreactivity (PSR sort gate)” value is “low polyreactivity”.

In the case of “QVQLVESGGGLVQAGGSLRLSCAASGIIFSQYAMGWYRQAPGKERELVASISRSGGITYYADSVKGRFTISRDNAKNTVYLQMNSLKPEDTAVYYCNAAKACREQWTSFDYWGQGTQVTVSS”, the “polyreactivity (PSR sort gate)” value is recorded as “high polyreactivity”.

On to “QVQLVESGGGLVQAGGSLRLSCAASGSISGVYAMGWYRQAAGKDRALVAASSGGSGRTYYADSVKGRFTISRDNAKNTVYLQMISLKPEDTAVYYCAKTVLYSSYRKYDYWGQGSQVTVSS”, for which the “polyreactivity (PSR sort gate)” value is “high polyreactivity”.

With “QVQLVESGGGLVPAGGSLRLSCAASGRTLYGYAMGWYRQAPGKERELVAAISGGGSTYYADSVKGRFTISRDNAKNTVYLQMNSLKPEDTAVYYCARRANFYVRRYYWGQGSQVTVSS”, the “polyreactivity (PSR sort gate)” value was “high polyreactivity”.

In the case of “QVQLVESGGGLVHAGGSLRLSCAASGSIFDDYAMGWYRQAPGKERELVAAITSGGSTYYADSVKGRFTISRDNAKNTVYLQMNSLKTEDTAVYYRATRYHWSSCFAPVGAYGYWGLGTQVTVSS”, the “polyreactivity (PSR sort gate)” value was “low polyreactivity”.
